B1: C555 (antibody, V domains shown)
VH: EVQLVESGGGLVKPGGSLRLSCAASGLTFSTTWMSWVRQAPGKGLEWVGRIKSKGDGGTTDFAGPVKGRFSISRDDSKNTLYLHMNSLKTEDTAVYYCTTDDPGSYYYGMDVWGQGTTVTVSS
VL: QTVVTQEPSLTVSPGGTVTLTCASSTGAVTSGHYPYWFQQKPGQAPRTLIYATSNKHSWTPARFSGSLLGGKAALTLSGAQPEDEADYYCLLSYSGARVFGGGTKLTVL
B2: C550 (antibody, V domains shown)
VH: EVQLVQSGAEVKKPGESLKISCKGSGYRFTNYWIGWVRQMPGKGLEWMGIIYPGDSDTRYSPSFQGQVTISADKSITTAYLQWSSLKASDTAMYYCARLSDRWYSPFDPWGQGTLVTVSS
VL: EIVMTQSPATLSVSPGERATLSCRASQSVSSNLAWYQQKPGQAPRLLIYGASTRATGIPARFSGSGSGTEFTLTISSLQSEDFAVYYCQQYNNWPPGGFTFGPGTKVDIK
B3: C532 (antibody, V domains shown)
VH: EVQLVQSGAEVKKPGESLKISCKGSGYRFTNYWIGWVRQMPGKGLEWIGNIFPGDSDSRYSPSFQGQVTISVDMSITTAYLHWSSLKASDTAIYYCARLSERWYSPFDSWGQGTLVTVSS
VL: EIVMTQSPATLSVSPGERATLSCRASQSVSSNLAWYQQKPGQAPRLLIYGASTRATGFPARFSGSGSGTEFTLTISSLQSEDFAVYFCQQYNNWPPGGFTFGPGTKVDIK
B4: C556 (antibody, V domains shown)
VH: QVQLVQSGAEVKKPGASVKVSCKASGYTFTYYYMHWVRQAPGQGLEWMGIINPSGGSTSYAQKFQGRVTMTRDTSTSTVYMELSSLRSEDTAVYYCARPLLPGETGSLNRLDYWGQGTLVTVSS
VL: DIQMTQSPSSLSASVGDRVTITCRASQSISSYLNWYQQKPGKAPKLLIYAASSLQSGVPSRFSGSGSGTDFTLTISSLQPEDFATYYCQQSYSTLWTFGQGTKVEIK
B5: C533 (antibody, V domains shown)
VH: EVQLVESGGSLVKPGGSLRLSCVASGLTFNHAWMSWVRQAPGKGLEWVGRIKSKIDGGTTDYAAPVKGRFTISRDDSKSTQYLQMNSLKTEDTAVYYCTTDCFWRLGGTTCYEHDAFDVWGQGTMVTVSS
VL: DIQMTQSPSSLSASVGDRVTITCRASQAIATFLNWYQQKPGKAPKLLIYAASSLQSGVPSRFSGSGSGTDFTLTISNLQPEDFATYYCQQSYNSLHFGGGTKVEIK
B6: C534 (antibody, V domains shown)
VH: QVQLVQSGAEVKKPGSSVRVSCKASGGTFSRNVISWVRQAPGQGLEWMGGIIPMFATANYAQKFQGRVTITADESSSTAYMELSSLRSEDTAVYYCAREDFILVSAPIRENSYYYYGMDVWGQGTTVTVSS
VL: EIVLTQSPGTLSLSPGERATLSCRASQSVSSNYLAWYQQKPGQAPRLLIYDASSRATGIPDRFSGSGSGTDFTLTISRLEPEDFAVYYCQQYGGSPRTFGQGTKVEIK
B7: C535 (antibody, V domains shown)
VH: EVQLVESGGALVQPGRSLRLSCAASGFTFDDYAMHWVRQAPGKGLEWVSSISWNGVSIGYADSVRGRFTISRDNAKNSLYLQMNSLKIGDTAFYYCARGLDGSSSASPDSWGQGTLVTVSS
VL: DIQMTQSPSSVSASVGDRVTITCRASQGIGSWLAWYQQKPGKAPKLLIYLASSLQSGVPSRFSGSGSGTYFTLTISGLQPEDFATYYCQQGNSFPLTFGGGTKVEIK
B8: C536 (antibody, V domains shown)
VH: QVQLVESGGGLVKPGRSLRLSCTVSGFTFGAYAMSWFRQAPGKGLEWVGFIRSKTYGGTTEYAASLKGRFTISRDDSKSIAFLQMNSLKTEDTAVYFCSRGGYYDGSPYYWNRPDAFDIWGLGTMVTVS
VL: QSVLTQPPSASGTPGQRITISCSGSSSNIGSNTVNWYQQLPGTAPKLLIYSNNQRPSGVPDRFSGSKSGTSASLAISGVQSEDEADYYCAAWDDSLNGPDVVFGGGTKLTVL
B9: C537 (antibody, V domains shown)
VH: QLQLQESGPGLVKPSETLSLTCTVSGGAISSRNYHWGWIRQPPGKGLEWIGSIYYSGSTYYSPSLKSRVTISVDTSKNQFSLRLSSVTAADTAVYYCARLETSGWYTEDVFDIWGQGTMVTVSS
VL: DIQMTQSPSSLSASVGDRVTITCRASQSISSYLNWYQQKPGKAPKLLIYAASSLQSGVPSRFSGSGSGTDFTLTISSLLPEDFATYYCQRSYSAMYTFGQGTKLEIK
B10: C538 (antibody, V domains shown)
VH: QLQLQESGPGLVKPSETLSLTCTVSGGSISSSSYYWAWIRQPPGKGLEWIGNIYYSGITYYSPSLKSRVTISVDTSKNQFSLKLRSVTAADTAVYYCARQHRYGSGSSELLWGQGTLVTVSS
VL: QSALTQPPSASGSPGQSVTISCTGTSSDVGSYNYVSWYQQHPGKAPKLMIYEVTKRPSGVPDRFSGSKSGNTASLTVSGLQADDEADYYCSSYAGSSNLIFGGGTKLTVL
B11: C563 (antibody, V domains shown)
VH: EVQLVESGGGLVKPGGSLRLSCAASGFPFTNAWMSWVRQAPGKGLEWVGHIKDYTDGGTTDYAAPVKGKFTISRDDSKNTLYLHMNSLKTEDTAVYYCSTVGSYYYDSRGPTSDAFDIWGQGTLVTVSS
VL: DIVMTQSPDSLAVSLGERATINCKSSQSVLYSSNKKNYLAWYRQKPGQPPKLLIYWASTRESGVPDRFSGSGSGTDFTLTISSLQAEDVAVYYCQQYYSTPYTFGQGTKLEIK
B12: C523 (antibody, V domains shown)
VH: QVQLQESGPGLVKPSETLSLTCTVSGASISSHYWSWIRQPPGKGLEWIGYIHYIGSTNYNPSLKSRVTILLDTSKNQFSLRLRSVTAADTAVYYCARGWPYCGVDCYSGFDYWGQGTLVTVSS
VL: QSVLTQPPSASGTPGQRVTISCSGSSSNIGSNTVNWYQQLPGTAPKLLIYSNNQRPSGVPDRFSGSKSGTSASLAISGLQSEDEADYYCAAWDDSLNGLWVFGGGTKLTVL
B13: C524 (antibody, V domains shown)
VH: EVQLVESGGDLIQPGGSLRLSCAASGFSVSNSYMSWVRQAPGKGLEWVSIIYSGGSTYYADSVKGRFTISRDNSKNTLYLQMNSLRAEDTAVYFCAKTPRGDYDSSGTSAYWGQGTLVTVSS
VL: QLVLTQSPSASASLGASVNLTCTLSSGHSSYAIAWHQQQPEKGPRFLMKLSSDGSHNKGDGIPDRFSGSSSGAERFLTISSLQSEDEADYYCQTWGIGSDWVFGGGTKLTVL
B14: C525 (antibody, V domains shown)
VH: EVQLVESGGRLVQPGRSLRLSCAASGFTFDDYAIHWVRQAPGKGLEWVSGISWNSGSIGYADSVRGRFTISRDNAKNSLYLQMNSLRAEDTALYYCAKGLDSSSSASPDYWGQGTLVTVSS
VL: DIQMTQSPSSVSASVGDRVTITCRASQDISSWLAWYQQKPGKAPKLLIYLASSLQSGVPSRFSGSGSGTDFILTISSLQPEDFGTYYCQQGNSFPLTFGGGTKVEIK
B15: C526 (antibody, V domains shown)
VH: QVQLVQSGAEVKKPGASVKVSCKASGHTFTTYYLHWVRQAPGQGLEWMGRIDPSGGSTTYAQKFQGRVTMTRDTSTSTVYMELSSLRSEDTALYYCARGGYCGSTSCSPDDYFDYWGQGTLVTVSS
VL: SYELTQPPSVSVAPGKTARITCGGNNIGSKSVHWYQQKPGQAPVLVIYYDSDRPSGIPERFSGSNSGNTATLTISRVEAGDEADYYCQVWDSSSDHYYVFGTGTKVTVL
B16: C527 (antibody, V domains shown)
VH: QVQLVESGGGVVQPGRSLRLSCAASGFTFSSYGMHWVRQAPGKGLEWVALIGYDGTDKYYAENVKGRFTISRDNSKNTLFLQMNSLRGGDTAVYLCARDGIPFRYGMDVWGQGTTVTVSS
VL: DIQMTQSPSTLSASVGDRVTITCRASQSIDIWLAWYQQKPGKAPKFLIHKASTLESGVPSRFSGSGSGTEFTLTISSLQPDDFATYYCQHYHSYSGTFGQGTKVEIK
B17: C528 (antibody, V domains shown)
VH: EVQLVESGGGLVQPGGSLRLSCAASGFTFRNYDMHWVRQVAGKGLEWVSAIGTSGDTYYPDSVKGRFTISRENAKNSVYLQMNNLRAGDTAVYFCVRDREISGWTGWYFDLWGRGTLVTVSS
VL: DIQMTQSPSSLSASVGDRVTITCRASQTIHNYLNWYQQIPGKAPRLLIYATNTLQSGVPSRFSGSGSGTDFTLTITGLQPEDFATYYCQQSYSTPPITFGQGTRLEIK
B18: C529 (antibody, V domains shown)
VH: EVQLLESGGGLVQPGGSLRLSCAASGFTFNNYAMNWVRQAPGRGLEWVSGISGSGANTYYADSVKGRFTISRDNPKNTLSLQMNSLRAEDTALYYCAKVLSPTYYDSWSGPDAFDFWGQGTMVTVSS
VL: DIQMTQSPSTLSASVGDRVTITCRASQTISPWLAWYQQKPGKAPNLLIYKASSLESGVPSRFSGSGSGTEFTLTISSLQPDDFATYYCQQYNSYSSWTFGQGTKVEIK
B19: C530 (antibody, V domains shown)
VH: QVQLVESGGGVAQPGRSLRLSCAASGFTFSRYGMHWVRQAPGKGLEWVAVIWHDGSDKYCADFVKGRFTISRDNSKNTLYMQMDSLRAEDTAVYYCARGGRPDHETGIAVLGEYYFDSWGQGTLVTVSS
VL: SYELTQPPSVSVSPGQTARITCSGDAFPLQYGYWYQQKPGQAPVLVIYKDKERPSGISERFSGSSSGTTVTLTISGVQAEDEADYYCQSADTNGVVFGGGTSLTVL
B20: C531 (antibody, V domains shown)
VH: EVQLVESGGGLVQPGRSLRLSCVATGFTFDDFAMHWVRQAPGKGLEWVSGISWNGGIIGYVDSVKGRFTISRDNAKNSLYLQMNSLRPEDTALYYCVKGYRYYYDILTGYYNDAGAFDYWGQGTLVTVSS
VL: DIQSTQSPSFLSASVGDRVAITCRASQGISSYLAWYQQKPGKAPKLLIYPASTLQSGVPSGFSGSGSGTEFTLTISSLQPEDFATYYCQQLNDYPFTFGPGTKVDIK
B21: C571 (antibody, V domains shown)
VH: EVQLVESGGGLIQPGGSLKLSCVVSGFTVSRNYISWVRQAPGKGLEWVSVLFAGGSTFYADSVKGRFAISRDNSNNTLFLQMNSLRVEDTAIYYCARGDGELIFDQWGQGTLVTVSS
VL: QSVLTQPPSVSGAPGQRVTIVCTGTSSNIGAGYDVHWYQQLPGRAPKVLVSGNNIRPSEVPDRFSGSRSGTSASLAITSLQPEDEAQYYCQSYDSNLYAVFGGGTKLTVL
B22: C572 (antibody, V domains shown)
VH: EVQLVESGGGLIKPGRSLRLSCTASGFTFGDYAMTWFRQAPGKGLEWVGFIRSKAYGGTTGYAASVKYRFTISRDDSKSIAYLQMDSLKTEDTAVYYCTRWDGWSQHDYWGQGTLVTVSS
VL: DIVMTQSPLSLSVTPGEPASISCRSSQSLLHSNGNNYFDWYLQKPGQSPQLLIYLASNRASGVPDRFSGSGSGTDFTLKISRVEAEDVGVYYCMQVLQIPYTFGQGTKLEI
B23: C573 (antibody, V domains shown)
VH: QVQLQESGPGLVKPSGTLSLTCAVSGGSISTVNWWSWVRQPPGKGLEWIGEIHHSGNTNHNPSLRSRVTISVDKSKNQFSLKLRSVTAADTAVYYCARDGGRPGDAFDLWGQGTMVTVSS
VL: QSALTQPASVSGSPGQSITISCTGTSSDVGGYNYVSWYQQHPGKVPKVMIYDVSNRPSGISNRFSGSKSGNTASLTISGLQAEDEADYYCNSYRSNSTRVFGTGTKVTV
B24: C574 (antibody, V domains shown)
VH: QVQLVQSGAEVKKPGASVKVSCKASGYTFTSYGFSWVRQAPGQGLEWLGWISAYNGNTNYAQKLQGRVTMTTDTSTSTAYMELRSLRSDDTAVYYCARAIAVAGTSGEFDYWGQGTLVTVSS
VL: not shown

Key:
[1] = molecular target: SARS-CoV-2 spike receptor binding domain (RBD), wild type (SARS-CoV-2, UniProt P0DTC2 319-539); assay: ELISA, RBD protein coated, mAb titrated
[2] = molecular target: SARS-CoV-2 spike receptor binding domain (RBD), wild type (SARS-CoV-2, UniProt P0DTC2 319-539); assay: ELISA, RBD protein coated, mAb titrated; remark: listed apart in the source

Row | Binder | EC50 [1] | EC50 [2]
1 | B1 | 2.88 ng/mL | 
2 | B2 | 2.56 ng/mL | 
3 | B3 | 1 ng/mL | 
4 | B4 | 1.36 ng/mL | 
5 | B5 | 1.61 ng/mL | 
6 | B6 | 4.85 ng/mL | 
7 | B7 | 2.46 ng/mL | 
8 | B8 | 1.88 ng/mL | 
9 | B9 | 41.9 ng/mL | 
10 | B10 | 3.94 ng/mL | 
11 | B11 | 1.19 ng/mL | 
12 | B12 | 9.08 ng/mL | 
13 | B13 | 5 ng/mL | 
14 | B14 |  | 10.6 ng/mL
15 | B15 |  | 18.2 ng/mL
16 | B16 |  | 13.4 ng/mL
17 | B17 |  | 5.66 ng/mL
18 | B18 |  | 8 ng/mL
19 | B19 |  | 10.5 ng/mL
20 | B20 |  | 6.84 ng/mL
21 | B21 |  | 4.62 ng/mL
22 | B22 |  | 2.9 ng/mL
23 | B23 |  | 2.2 ng/mL
24 | B24 |  | 8.12 ng/mL
